Laboratory results reported in patent US20230220021A1 (UNIVERSITY OF COPENHAGEN, published 2023).
Substitutions are numbered along the chain they refer to. Where no end group is shown, it is not given here.

What was measured:
PSD-95-PDZ2 V229A = biological target: T1, PSD-95-PDZ2 V229A (UniProt P78352 160-246); assay: FP saturation
T1 construct: domain: PDZ2; not shown: 7x His tag

PSD-95-PDZ2 K165A = biological target: T2, PSD-95-PDZ2 K165A (UniProt P78352 160-246); assay: FP saturation
T2 construct: domain: PDZ2; also called K165 mutation; not shown: 7x His tag

[1] = biological target: T3, (7× His)-PSD-95-PDZ2 wild type (UniProt P78352 160-246); assay: FP saturation
T3 construct: domain: PDZ2; recombinant from E. coli; also called PSD-95-PDZ2 WT; not shown: 7x His tag

PSD-95-PDZ2 H225A = biological target: T4, PSD-95-PDZ2 H225A (UniProt P78352 160-246); assay: FP saturation
T4 construct: domain: PDZ2; not shown: 7x His tag

PSD-95-PDZ2 E226A = biological target: T5, PSD-95-PDZ2 E226A; assay: FP saturation, TAMRA probe titrated with the protein
T5 chain: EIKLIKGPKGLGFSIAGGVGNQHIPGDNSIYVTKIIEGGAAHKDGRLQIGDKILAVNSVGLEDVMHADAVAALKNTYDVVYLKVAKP
Protocol: (§1) Fluorescence polarization (FP). FP assays were performed in a 384-well plate format. Fluorescence polarization was measured using a Safire 2 plate reader. The instrument Z-factor was optimized for each assay. The G-factor was calibrated to an initial milli polarization value of 20. […] Every measurement was performed in NaPI 50 mM, 50 mM NaCl and 1% BSA at pH 7.2, 25° C. […] The curves were done in triplicates. Then, the polarization was fitted into a one-site binding model using Prism software 8.0 (GraphPad), from which the Kd can be measured. […] The mili polarization (mP) values were plotted as a function of peptide concentration and fitted to a sigmoidal dose-response curve using Prism software 8.0 (GraphPad). The Kᵢ values were calculated according to Nikolovska-Coleska Z. et al.⁴⁰⁻⁴¹
(§2) Obtained binding affinities (Kd values) for each PSD-95-PDZ2 Ala mutants were normalized to PSD-95-PDZ2 WT values to obtain the fold change for each mutation (FIG. 8).

PSD-95-PDZ2 T192A = biological target: T6, PSD-95-PDZ2 T192A; assay: as above
T6 chain: T5 chain with T33A, A67E
Protocol: as §1, §2

PSD-95-PDZ2 K168A = biological target: T7, PSD-95-PDZ2 K168A; assay: as above
T7 chain: T5 chain with K9A, A67E
Protocol: as §1, §2

PSD-95-PDZ2 K193A = biological target: T8, PSD-95-PDZ2 K193A; assay: as above
T8 chain: T5 chain with K34A, A67E
Protocol: as §1, §2

PSD-95-PDZ2 S173A = biological target: T9, PSD-95-PDZ2 S173A; assay: as above
T9 chain: T5 chain with S14A, A67E
Protocol: as §1, §2

PSD-95-PDZ2 N180A = biological target: T10, PSD-95-PDZ2 N180A; assay: as above
T10 chain: T5 chain with N21A, A67E
Protocol: as §1, §2

PSD-95-PDZ2 K233A = biological target: T11, PSD-95-PDZ2 K233A; assay: as above
T11 chain: T5 chain with A67E, K74A
Protocol: as §1, §2

B1: TAMRA labelled C-terminal GluN2B peptide (KLSSIESDV-COOH) (peptide)
peptide: KLSSIESDV-OH
modifications: also: TAMRA label (site not given here)
notes: also called C-terminal GluN2B TAMRA probe; GluN2B canonical peptide
- fold loss in affinity vs PDZ2 WT (PSD-95-PDZ2 V229A): 2 fold
- fold loss in affinity vs PDZ2 WT (PSD-95-PDZ2 K165A): 5 fold
- Kd [1]: 4 µM
- fold decrease in affinity vs PDZ2 WT (PSD-95-PDZ2 H225A): 5 fold
- binding result (PSD-95-PDZ2 E226A): binds
- binding result (PSD-95-PDZ2 T192A): binds
- binding result (PSD-95-PDZ2 K168A): binds
- binding result (PSD-95-PDZ2 K193A): binds
- binding result (PSD-95-PDZ2 S173A): binds
- binding result (PSD-95-PDZ2 N180A): binds
- binding result (PSD-95-PDZ2 K233A): binds
